Assay results: the DeepSol protein solubility set

Experiment: soluble on expression in E. coli; label from the status in PepcDB or PDB records

Q: Which “soluble on expression in E. coli” value does the source give for “MSLRSTKTIHVISCHAEGEVGDVIVGGVAPPPGETLWEQRSFIARDQTLRNFVLNEPRGGVFRHVNLLVPPRHPEADAAFIIMEPEDTPPMSGSNSICVSTVLLDGGIVPMIEPITEMVLEAPGGLVRVKAECRNGKAERIFVQNVTSFADKLSVPLDVEGIGTLTVDTAYGGDSFVVVDAEALGFAIVEDEAKDIARLGVRITNAANEQLGFSHPENPDWNHISFCAFCGPLSQTPTGLTGRSAVAIQPGKVDRSPTGTAVSARMALMAARGQMTIGDTFEAVSIIGSSFTGRIVSQQMAGDRPGIVPEISGRGWITGIHQHMLDPSDPWPGGYKLSDTWGAEGHHHHHH” here?
A: Its value is “soluble”.

Q: With “MSLRTIKNLRDMIEQSSKLFANKDAFRVKTKDNSYRGITFAEFKNDIDAFGTALLDLLGTEKGFVAVIGENRYEWCVTYLATINGVGVVIPLDKELPLPELENLLKQSNANAIVYSGKFHDAIKEMSSRLSNIKYFINMNTNEHEDDKFLSFWVLLEKGKKLLESGKKDYLNAPIDENAMSAMIFTSGTTGQAKAVMLSHKNICSNMMAVSASVYMDSTDSVLSILPLHHTYECTAGFLTMIYNGATITFNEGLKYIGKNLKEAQPTILILVPLILESMYNKIWEQASKDKSLKFKLKAGLFISNLLYKVFKIDIRRKLFKSVIDNVGGKLRLVISGAAALDPEVAKGFEAMGIKVLQGYGLTEASPIVAVNRDKSYRHDSVGLPLPGLDVEIINPDKEGFGEIIVKGDSVMLGYYNNDDATKAVLKDGWLYTGDLGRMDEKGFIYITGRKKNIIVTKTGKNIFPEEVEAYLNKSPYIKESLVSGRENDKNDETIVVAQIVPDMDAIKAKLKTDTVPSPEEVYKLIKAEIRAINKNMPVYKRVVDITIRENEFAKTSSKKIKRYLEKTNEGHHHHHH” as the sequence, how does the “soluble on expression in E. coli” value read?
A: Its value is “soluble”.

Q: With “MSLRTLYSGGLVFDGIGNLLEQHGVLVDGQKICRIAPLGEFEGFSDEKVDTSDGTLLPGLIDCHVHIVYSGEADPKSHLLKLRPGQIVINALENAKKTLSNGITSIRDLGGRDFLEFAVRDACNSGRQTGPTIRAAGRMICMTGGHGNAFGRVADGPDEVLKAVREQIHAGSDVIKLMATGGVMTPGVNPEDAHYSEEELRVGVNEGHRFNRKCASHAQGSAGILNAVNAGMDSIEHGIFMTQESLESMLKHQTYLVPTLSAVNNIYLNRDNGIPEFIVEKTLRIRERHHQSIKMFYKAGGKMAMGTDAGTPFNLHGENTNELQYMVDLGVSNLDVLKISTVNAADLMDLEDRGIIQEGFYADFLIVNGDPVKDISKVADRKNHRIVVKNGVHINEGHHHHHH” as the sequence, how does the “soluble on expression in E. coli” value read?
A: Its value is “soluble”.

Q: Which “soluble on expression in E. coli” value does the source give for “MSLSAPRITRVETAAIRAVGPSVLVRVWAGDEHGLGECYPSAPAAGIHHIVMNMEEQLLGEDPRDVERLYEKMRRWNIFTGGQAGAVITALSGIETALWDLAGKLQGVPVYRLLGGAFRRRVRLYADCNAGTVDAAAHHIEGGLFEEGSNEEYIAVAREAVERGFDAIKLDVDDITGPLHRDFWNGAISPREHEAMVARVAAVREAVGPEVEVAIDMHGRFDIPSSIRFARAMEPFGLLWLEEPTPPENLDALAEVRRSTSTPICAGENVYTRFDFRELFAKRAVDYVMPDVAKCGGLAEAKRIANLAELDYIPFAPHNVSSPVGTVAAAHVCAAVSNFAVLEWHAIDMPHWEDFVRYPGGPVIREGHIELTEEPGLGLELDEEAAFEHRHEKGGVPFFGRTEGHHHHHH” here?
A: The value was “soluble”.

Q: For “MSLSASFTGAGFFKGGKTLDFSKLSYLSNSFMSLPSTVRNKQASQTAKNKSMIEFIEKIQSKNIVVRQEERGIVISLAADAFFDSASADVKLEENRDSIQKIASFIGFLSPRGYNFKIEGHTDNIDTDVNGPWKSNWELSAARSVNMLEHILNYLDQSDVKRIENNFEVSGFGGSRPIATDDTPEGRAYNRRIDILITTDASLSFPKEGHHHHHH”, which “soluble on expression in E. coli” value is on record?
A: Its value is “soluble”.

Q: For “MSLSDAVNKHPKSPNPQLCAVTLLGNLVATPDIRYRANPATAVTEIVLATSSKWLDKITNKYKEWTSYHHVKVEGELVELALLNANKGDIILLHGYLSNIKPKSTDKSTNHLGIVHANFVQKFEKGYTQAINQIHCSAQLTSKPKLMLTEQNKNITQANIVINQHIYNTDKQAWQTISVERAIHVWGKQAQYLAEHGDIGDELMLEGKLSYTSGVSKDQFIEVKNVHLFKGTLEHHHHHH”, which “soluble on expression in E. coli” value is on record?
A: Its value is “soluble”.

Q: Which “soluble on expression in E. coli” value does the source give for “MSLSDDTSVVQDYIKSRDALVVLEQKMPLRDAFGGRYADIFSRFPGVIGRDGFEYFYRYFKNHVAVDVGTATAVTTLRVQAYTSKDAYLINKYLLEMAEKRVNELNDRSRQDSLRYALAEVAGAEAKVKAASTALSKFRSKASLFDPDRQSNIQLELVAKLRGELIAKQAQLSQLRMLSPQNPQIPSLAASIGALEASIASEKGGVAGEKNSLSDRSVEYQRLALEQSFGEKLLASALTSLEQARADAERKQIYLERVAEPNEPDVAMEPKREGHHHHHH” here?
A: The value was “soluble”.

Q: With “MSLSDGNITFAYSYPIKAFEKFLGYYDRENRIAFNPSISMRTDFSFCLAACRYRKNGKTDTVVLDGYADNKYYKKAKFALDKFRSEYSINGSFDFYIKRYRRYQKAKGLSESSAVAAAVSRALISNVFGDDAAKDDIFVSRYARLVSGSGTRAAHDGISMWLSYPGMDSRDCVAFKVGKSNENLNYGVFPKYSDVATDNAHSIAVNSVFYGTWVSEKFSNVKRLISDHFDINDLLKIGENDMLRLNSILMSGGLIIQTPDSLRILKEILKFKSKNEGFYFTADTGPSIAIFSFDRSLIDEFRENVNDEYIEGSYDFKGYNNEGHHHHHH” as the sequence, how does the “soluble on expression in E. coli” value read?
A: Its value is “not soluble”.

Q: For “MSLSDPIKIGFLAPLTGPVSSWGLPGLHGCRLWEDWLNRAGGILVGGRRYPVSIVPFDCGYDPERAMEGARHLVHTEQVKLLMMLGGDTFTPLRGFLTANKVLTSTLLPSDLSPDTRYLIAPSEVHPIYNVTGVDWLARNRPELRRVAMCSQKDALGLPSIATYRAAFEAAGVPVVKEVEYDPEMTDVATIVQPMLDAQPDVLCWCTSYTPMVHAMTEYAHAKGFSGQILSCTLDNYQRLVARTSAEFMEGALFQFPDFDDPKLARKAFFFNRPSTFFKEYNARYPGNWSAVSWEYVAILDIWHAAVEKVASVHPVSVLATMKQMDPVTHAFGPARWWGEGHHHHHH”, which “soluble on expression in E. coli” value is on record?
A: The value was “not soluble”.

Q: For “MSLSDPIKITFSVEGLSHPFLVKQKQLAEETGKRLGAQVNVISANDDVNQQFNDIQTAIAQGTDALMMMPATTQGLDAVLKQAEAAQIPYFFSQKGMLGVEPASQVLAPYSNEGQQLGEWVVEHYKGQEDVKVAIISGIPGDQSSDARVNSFLLPLLRSCNFNVVANQPGNYRRGDSEKAAQNMLAANPDIDLLFGANDEAALGGIAALKSSGRQGVDVVGLDGQTDMFAAIQSGQALATVIHKPTAGIVVEEAVDYLRGKPVPEYRVLDEDLVTKETIETGAQPAEGHHHHHH”, which “soluble on expression in E. coli” value is on record?
A: Its value is “soluble”.

Q: Which “soluble on expression in E. coli” value does the source give for “MSLSDRDSTLSRLKSAGENGDVEAQYALGLMYLYGEILDVDYQQAKIWYEKAADQNDPRAQAKLGVMYANGLGVNQDYQQSKLWYEKAAAQNDVDAQFLLGEMYDDGLGVSQDYQHAKMWYEKAAAQNDERAQVNLAVLYAKGNGVEQDYRQAKSWYEKAAAQNSPDAQFALGILYANANGVEQDYQQAKDWYEKAAEQNFANAQFNLGMLYYKGEGVKQNFRQAREWFEKAASQNQPNAQYNLGQIYYYGQGVTQSYRQAKDWFEKAAEKGHVDAQYNLGVIYENGEGVSQNYQQAKAWYEKAASQNDAQAQFELGVMNELGQGESIDLKQARHYYERSCNNGLKKGCERLKELLYKEGHHHHHH” here?
A: Its value is “soluble”.

Q: With “MSLSDTTKTASTRTSVTDQEALDFHAQGRPGKLEITPTKPMATQRDLSLAYSPGVAVPVKAIAENPATAYDYTTRGNMVAVISNGTAILGLGNLGALASKPVMEGKSVLFKRFADVDSIDLEVDTEDADEFINCVRYLGPSFGGINLEDIKAPECFIIESRLRELMDIPVFHDDQHGTAIIAAAGLINAIELTGRDFKTTKLVCNGAGAAAIACMDLIKAMGFNPENITLCDTKGVIYQGRTEGMNQWKSAHAVKTDRRTLTEAMNGADVVFGLSQKGAFTEEMIRSMAPKPIIFAMANPDPEITPEEVSRIRDDAIMATGRSDYPNQVNNVLGFPYIFRGALDVRARQINDAMKIAAAQALADLAREDVPDDVAAAYQGNRPRFGSQYIIPVPFDPRLISAIPVAVAKAAIETGVAQREIPDLDAYARELSARRDPMASTTQRLYERVRRSPKRVVFAEAEEEQVMRAAISFTAQGLGTAILLGRDDIIKANAERAGIDLDRANIEITNARLSSRVDAYVDYLYARLQRGGFLLRDVQRLIHNDRNHFAACMVAMGDADAVVTGVTRNYSTALEDIRRCINTKPGHRVIGVSLVVSRNRTVFVADTAVHDMPNAEDLADIAEEAAHLARRFGYEPRVAMLAYSTFGQPVGERSDKVREAVKILDKRNVNFEVDGEMSADVALNHQRMQSQYPFARLSGAANVLVMPAIHSASISTKMLQELGGATVIGPLLVGLDKSVQITSMGAKDSDIVNMAAIAAYNAGREGHHHHHH” as the sequence, how does the “soluble on expression in E. coli” value read?
A: The value was “not soluble”.
